Legend:
[1] = target: T1, recombinant toxoid variant of the LukAB protein (LukA E323A) with poly-histidine and streptavidin binding … (Staphylococcus aureus, UniProt Q2FFA2 31-351; P21224 30-338); assay: ELISA, biotinylated LukAB toxoid on streptavidin plate, mAb titrated
T1 construct: also called LukAB toxoid protein; biotinylated LukAB

[2] = target: T2, recombinant derivative of the LukE protein (SEQ ID NO: 826) with amino-terminal poly-histidine affinity tag (Staphylococcus aureus, UniProt Q2FXB0 24-306); assay: ELISA, biotinylated LukE on streptavidin plate, mAb titrated
T2 construct: not biotinylated in HDX-MS and neutralization assays; also called biotinylated LukE; LukE antigen
T2 sequence: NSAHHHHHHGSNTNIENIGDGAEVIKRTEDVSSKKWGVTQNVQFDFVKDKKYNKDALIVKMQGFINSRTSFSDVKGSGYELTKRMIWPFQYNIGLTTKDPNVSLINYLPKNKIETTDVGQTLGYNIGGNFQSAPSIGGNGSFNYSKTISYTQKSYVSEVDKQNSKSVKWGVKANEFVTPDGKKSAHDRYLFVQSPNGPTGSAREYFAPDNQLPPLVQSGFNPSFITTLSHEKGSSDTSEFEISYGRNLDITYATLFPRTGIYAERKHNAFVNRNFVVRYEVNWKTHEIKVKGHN

[3] = target: T2, recombinant derivative of the LukE …; assay: HDX-MS, Fab with LukE in solution
[4] = target: T3, recombinant derivative of the LukD protein (SEQ ID NO: 824) with amino-terminal polyhistidine affinity tag, … (Staphylococcus aureus, UniProt Q2FXB1 27-327, chemically biotinylated in vitro (sites not given)); assay: ELISA, biotinylated LukD on streptavidin plate, mAb titrated
T3 construct: it carries the N-terminal His tag; also called biotinylated LukD; LukD antigen
T3 sequence: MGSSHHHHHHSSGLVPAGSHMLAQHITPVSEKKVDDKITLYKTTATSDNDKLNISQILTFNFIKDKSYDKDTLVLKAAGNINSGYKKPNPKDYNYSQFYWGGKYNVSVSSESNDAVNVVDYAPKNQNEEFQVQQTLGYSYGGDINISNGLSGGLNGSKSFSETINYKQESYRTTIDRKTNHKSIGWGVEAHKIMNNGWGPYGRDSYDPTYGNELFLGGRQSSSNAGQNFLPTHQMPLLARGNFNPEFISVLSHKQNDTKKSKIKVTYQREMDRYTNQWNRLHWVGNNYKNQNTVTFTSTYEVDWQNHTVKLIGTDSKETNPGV

[5] = target: T2, recombinant derivative of the LukE …; assay: BLI, sequential binding

B1: anti-LukAB mAb SM1B245 (antibody, mouse IgG2a, kappa, V domains shown)
VH: QVQLQQSGAELAKPGASVKMSCKSSGYTFSTYWMHWVKQRPGQGLEWIGYINPNTGYTEYNQKFKDTATLTADKSSSTAYMQLSSLTSEDSAVYYCARGGSKAFPYYAMDYWGQGTSVTVSS
VL: DIVLTQSPASLAVSLGQRATMSCRASESVDGYGNSFLHWYQQKPGQPPKLLIYRASNLESGIPARFSGTGSRTDFTLTITPVEADDVATYYCQQSNGDPFTFGSGTKLEIKR
[1]
  binding result: binds

B2: anti-LukE mAb SM1B332 (antibody, mouse IgG2a, kappa, V domains shown)
VH: QVQLKESGPGLVAPSQSLSITCTVSGLSLTSYGLSWVRQPPGKGLEWLGVIWGDGSTNYHSALISRLSISKDNSKSQVFLKLNSLQSDDTATYYCATRGDYGSYAMDYWGQGTSVTVSS
VL: QIVLTQSPAIMSASPGEKVTLTCSASSSVSSSYLFWYQQKPGSSPKLWIYSTSNLASGVPVRFSGSGFGTSYSLTISRMEAEDAASYFCHQWSSYPPTFGAGTKLELKR
[2]
  EC50: ~0.05 µg/mL

B3: anti-LukAB mAb SM1B252 (antibody, mouse IgG2a, kappa, V domains shown)
VH: QVQLQQSGAELMKPGASVKISCKASGYTFSDYWIEWIKQRPGHGLEWMGEILPGSDKTNYNEKFKGKATFTADSSSNTAYMQLNSLTSEDSAVFYCATAGDDYVKWGQGTLVTVSA
VL: DVLMTQTPLSLPVSLGDQASISCRSSQSIVYSNGNTYLEWYLQKPGQSPKLLIYKVSNRFSGVPDRFSGSGSGTDFTLKISRVEAEDLGVYYCFQGSHVPFTFGSGTKLEIKR
[1]
  binding result: binds

B4: anti-LukE mAb SM1B318 (antibody, mouse IgG2a, kappa, V domains shown)
VH: QVQLQQSGAELMNPGASVKISCKSTGYKFSSYWIEWVKQRPGHGLEWMGEILPGSGSTNHNEKFKGKAIFTADASSNTAYMELSSLTSEDSAVYYCARTISTATDWFAYWGQGTLVTVSA
VL: DVLMTQTPLSLPVSLGDQASISCRSSQTIVYSDGNTYLEWYLQKPGQSPKLLIYKVSNRFSGVPDRVSGSGSGTDFTLKISRVEAEDLGVYYCFQGSHVPYTFGGGTKLEIKR
[2]
  binding result: binds

B5: Fab SM1B438 (the Fab corresponding to mAb SM1B318) (Fab, V domains shown)
VH: QVQLQQSGAELMNPGASVKISCKSTGYKFSSYWIEWVKQRPGHGLEWMGEILPGSGSTNHNEKFKGKAIFTADASSNTAYMELSSLTSEDSAVYYCARTISTATDWFAYWGQGTLVTVSA
VL: DVLMTQTPLSLPVSLGDQASISCRSSQTIVYSDGNTYLEWYLQKPGQSPKLLIYKVSNRFSGVPDRVSGSGSGTDFTLKISRVEAEDLGVYYCFQGSHVPYTFGGGTKLEIKR
[3]
  binding result: binds

B6: antibody SM1B225 (antibody, V domains shown)
VH: EVQLQQSGGGLVKPGGSLKLSCAASGFTFSSYAMSWVRQTPEKRLEWVATITGGGTYTYYLDSVKGRFTISRDNAKTSLYLQMSSLRSEDTAMYYCARHRDGNYGCFDVWGAGTTVTVSS
VL: DIVLTQSPAIMSASLGERVTMTCTASSSVSSSYLHWYQQKPGSSPKLWVYSTSNLASGVPARFSGSGSGSSYSLTISSMEPEDTATYYCHQYHRSPQTFGGGTKLEIKR
notes: also called anti-LukD mAb SM1B225
[4]
  EC50: 0.01 to 0.2 µg/mL

B7: anti-LukAB mAb SM1B111 (antibody, V domains shown)
VH: EVQLQQSGAELVKPGASVKISCKASGYAFSSSWMNWLKQRPGKGLEWIGRIYPGDGDTNYNGKFKGKATLTADKSSSTAYMQLSSLTSEDSAVYFCARYGYDYDGEYYYAMDYWGQGTSVTVSS
VL: DIVMTQSPTTMAASPGERITITCSAHSNLISNYLHWYQQKPGFSPKLLIYRTSNLASGVPARFSGSGSGTSYSLTIGTMEAEDVATYFCQQGSSIPFTFGSGTKLEIKR
[1]
  binding result: binds

B8: Fab SM1B709 (the Fab corresponding to mAb SM1B507) (Fab, V domains shown)
VH: EVQLQQSGAELVKPGASVKMSCKASGYTFTDYYMDWVKQSHGKSFEWIGHVNPYNGDTRYNQKFKGKATLTVDKSSTTAYMELNSLTSEDSAVYYCARGNFFDYWGQGTTLSVSS
VL: DIVMTQSPAIMSASPGEKVTIPCSASSSVSYMHWFQQKPGTSPKLWIYSTSNLASGVPGRFSGSGSGTSYSLTISRMEAEDAATYYCQQRSNYPLTFGAGTKLELKR
[3]
  binding result: binds

B9: anti-LukE mAb SM1B507 (antibody, mouse IgG1, kappa)
heavy: EVQLQQSGAELVKPGASVKMSCKASGYTFTDYYMDWVKQSHGKSFEWIGHVNPYNGDTRYNQKFKGKATLTVDKSSTTAYMELNSLTSEDSAVYYCARGNFFDYWGQGTTLSVSSAKTTPPSVYPLAPGSAAQTNSMVTLGCLVKGYFPEPVTVTWNSGSLSSGVHTFPAVLESDLYTLSSSVTVPSSPRPSETVTCNVAHPASSTKVDKKIVPRDCGCKPCICTVPEVSSVFIFPPKPKDVLTITLTPKVTCVVVDISKDDPEVQFSWFVDDVEVHTAQTQPREEQFNSTFRSVSELPIMHQDWLNGKEFKCRVNSAAFPAPIEKTISKTKGRPKAPQVYTIPPPKEQMAKDKVSLTCMITDFFPEDITVEWQWNGQPAENYKNTQPIMNTNGSYFVYSKLNVQKSNWEAGNTFTCSVLHEGLHNHHTEKSLSHSPGK
light: DIVMTQSPAIMSASPGEKVTIPCSASSSVSYMHWFQQKPGTSPKLWIYSTSNLASGVPGRFSGSGSGTSYSLTISRMEAEDAATYYCQQRSNYPLTFGAGTKLELKRADAAPTVSIFPPSSEQLTSGGASVVCFLNNFYPKDINVKWKIDGSERQNGVLNSWTDQDSKDSTYSMSSTLTLTKDEYERHNSYTCEATHKTSTSPIVKSFNRNEC
[5]
  binding result: binds

From patent US20200317758A1 (NEW YORK UNIVERSITY, published 2020)
